Test results from article PMC3752660.

Molecular target: His6-Rv3208 (FasR from M. tuberculosis) (M. tuberculosis H37Rv)
Experiment: SEC

His6-Rv3208 (FasR from M. tuberculosis) (natural protein)
stoichiometry N: 2
